Test results as given in PMC11825685 (Nature Communications, 2024).

How the values were obtained:
[1] = biological target: Mycobacterium tuberculosis (Mtb) PhoP, phosphorylated (Mycobacterium tuberculosis) (UniProt P71814); assay: cryo-EM structure
[2] = biological target: T1, Mtb RNAP β subunit (Mycobacterium tuberculosis, UniProt P9WGY9 1-1178); assay: cryo-EM structure
T1 sequence: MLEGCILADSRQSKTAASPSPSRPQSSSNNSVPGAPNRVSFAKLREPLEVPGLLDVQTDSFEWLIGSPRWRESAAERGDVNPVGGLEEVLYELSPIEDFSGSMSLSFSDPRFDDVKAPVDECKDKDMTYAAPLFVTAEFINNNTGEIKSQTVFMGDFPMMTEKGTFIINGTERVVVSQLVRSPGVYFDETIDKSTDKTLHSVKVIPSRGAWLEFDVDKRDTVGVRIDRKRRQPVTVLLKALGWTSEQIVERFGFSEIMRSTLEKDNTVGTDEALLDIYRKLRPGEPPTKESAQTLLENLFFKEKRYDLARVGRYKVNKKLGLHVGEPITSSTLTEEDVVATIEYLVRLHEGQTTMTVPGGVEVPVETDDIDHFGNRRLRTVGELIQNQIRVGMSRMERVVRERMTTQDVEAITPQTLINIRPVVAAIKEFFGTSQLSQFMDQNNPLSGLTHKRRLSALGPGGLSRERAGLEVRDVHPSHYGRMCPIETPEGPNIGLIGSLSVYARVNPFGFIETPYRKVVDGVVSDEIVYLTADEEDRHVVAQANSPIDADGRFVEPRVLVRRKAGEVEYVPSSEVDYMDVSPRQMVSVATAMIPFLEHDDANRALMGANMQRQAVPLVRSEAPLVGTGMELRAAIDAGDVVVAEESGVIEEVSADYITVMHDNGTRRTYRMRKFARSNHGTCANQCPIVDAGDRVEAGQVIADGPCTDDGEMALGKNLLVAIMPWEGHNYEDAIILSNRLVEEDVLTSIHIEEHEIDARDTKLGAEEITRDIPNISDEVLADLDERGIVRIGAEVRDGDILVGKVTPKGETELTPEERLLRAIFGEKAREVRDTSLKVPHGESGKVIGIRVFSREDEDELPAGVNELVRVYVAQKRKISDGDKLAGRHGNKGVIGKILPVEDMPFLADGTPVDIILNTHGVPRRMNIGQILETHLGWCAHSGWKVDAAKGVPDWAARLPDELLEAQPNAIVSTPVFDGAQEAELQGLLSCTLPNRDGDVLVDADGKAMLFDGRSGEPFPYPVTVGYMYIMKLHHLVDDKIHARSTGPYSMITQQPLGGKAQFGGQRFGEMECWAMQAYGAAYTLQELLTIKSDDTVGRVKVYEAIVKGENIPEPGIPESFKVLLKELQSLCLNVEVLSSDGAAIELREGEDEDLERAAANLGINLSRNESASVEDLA

[3] = biological target: T2, Mtb RNAP σ^A (Mycobacterium tuberculosis, UniProt P9WGI1); assay: cryo-EM structure
T2 sequence: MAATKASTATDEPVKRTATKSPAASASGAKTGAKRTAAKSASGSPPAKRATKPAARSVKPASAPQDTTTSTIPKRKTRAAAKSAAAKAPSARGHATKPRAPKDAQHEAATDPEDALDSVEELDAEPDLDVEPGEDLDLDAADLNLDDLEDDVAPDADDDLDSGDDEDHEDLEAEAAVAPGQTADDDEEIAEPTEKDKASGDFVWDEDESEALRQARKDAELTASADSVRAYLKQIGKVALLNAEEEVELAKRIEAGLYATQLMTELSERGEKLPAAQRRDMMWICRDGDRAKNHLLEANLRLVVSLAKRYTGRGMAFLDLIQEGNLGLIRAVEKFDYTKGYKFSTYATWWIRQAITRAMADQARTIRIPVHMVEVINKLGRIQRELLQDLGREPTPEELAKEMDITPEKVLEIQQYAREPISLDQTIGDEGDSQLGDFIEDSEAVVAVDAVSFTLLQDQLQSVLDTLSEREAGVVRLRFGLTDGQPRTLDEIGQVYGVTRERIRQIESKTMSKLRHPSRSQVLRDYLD

[4] = biological target: T3, Mtb RNAP α subunit (Mycobacterium tuberculosis, UniProt P9WGZ1); assay: cryo-EM structure
T3 sequence: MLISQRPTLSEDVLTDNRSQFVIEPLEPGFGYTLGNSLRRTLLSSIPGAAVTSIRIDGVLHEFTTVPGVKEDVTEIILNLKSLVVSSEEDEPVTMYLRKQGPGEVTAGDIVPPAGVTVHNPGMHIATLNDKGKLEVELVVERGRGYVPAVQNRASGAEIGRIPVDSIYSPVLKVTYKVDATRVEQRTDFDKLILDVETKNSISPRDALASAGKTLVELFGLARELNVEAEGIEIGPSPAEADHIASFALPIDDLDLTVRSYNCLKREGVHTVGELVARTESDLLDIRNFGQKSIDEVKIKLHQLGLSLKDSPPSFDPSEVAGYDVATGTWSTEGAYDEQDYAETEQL

[5] = biological target: the molecule itself; assay: cryo-EM structure
[6] = biological target: RNAP holoenzyme (sigma A);GlnR (Mycobacterium …, UniProt P9WGZ1;P9WGY9;P9WGY7;P9WGY5;P9WGI1;O53830 1-347;1-1178;1-1316;1-110;1-528;1-255, |); assay: EMSA

With “Mycobacterium tuberculosis (Mtb) PhoP, phosphorylated (from UniProt P71814 1-247) (natural protein)” as the molecule, how does the stoichiometry N [1] read?
Its stoichiometry N is 2.

B1: Mtb GlnR (natural protein)
chain: MLELLLLTSELYPDPVLPALSLLPHTVRTAPAEASSLLEAGNADAVLVDARNDLSSGRGLCRLLSSTGRSIPVLAVVSEGGLVAVSADWGLDEILLLSTGPAEIDARLRLVVGRRGDLADQESLGKVSLGELVIDEGTYTARLRGRPLDLTYKEFELLKYLAQHAGRVFTRAQLLHEVWGYDFFGGTRTVDVHVRRLRAKLGPEHEALIGTVRNVGYKAVRPARGRPPAADPDDEDADPGRDGMQEPLVDPLRSQ
Does B1 bind [2]?
Result: binds

Does B1 bind [3]?
Result: binds

Does B1 bind [4]?
Result: binds

Does B1 bind [5]?
Result: binds

B2: phoU promoter (mango-fused) (dsDNA)
DNA 1: ACCTCGAACACTCGTCGCCCAGAGTTCACCTTGGAGCCAGGGACGGTTCATTTGGGGTGCCGGAAACGGACGCGTACAGGCCGGAACGTGTAAGCGTGGGGGCACGGCGGGGGGCGCGAAGCCGGCACGTACGAAGGAAGGATTGGTATGTGGTATATTCGTACGTGCC
DNA 2: GGCACGTACGAATATACCACATACCAATCCTTCCTTCGTACGTGCCGGCTTCGCGCCCCCCGCCGTGCCCCCACGCTTACACGTTCCGGCCTGTACGCGTCCGTTTCCGGCACCCCAAATGAACCGTCCCTGGCTCCAAGGTGAACTCTGGGCGACGAGTGTTCGAGGT
Does B2 bind [6]?
Result: no binding
